Measurements taken from the supplement of paper PMC10065799, “High-throughput profiling of sequence recognition by tyrosine kinases and SH2 domains using bacterial peptide display” (eLife, 2023).

Each sequence was assayed on c-Src (assay: phosphorylation enrichment, bacterial display (enrichment ratio); higher = better substrate or ligand; peptides without Tyr show the background).
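Throughout, for SH2 binding enrichment of the phosphorylated peptide, bacterial display: peptide library displayed on the E. coli surface as eCPX fusions, selected cells deep-sequenced, score is each peptide's frequency after selection divided by its frequency in the input.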
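Throughout, for phosphorylation enrichment, bacterial display: 11-residue human phosphosite peptides and single-mutation variants displayed on the E. coli surface, counted by deep sequencing, each peptide's frequency after selection divided by its frequency in the unselected input library; frequency after pTyr selection over input frequency; kinase dosed for 20-30% of maximal phosphorylation in three min.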

In order of rising phosphorylation enrichment:
1. SYCYRYRCAAQ [SUMF1_Y344_R349Q]  0.399
2. GDSVQYNRTTD [MLPH_Y454_P451S]  0.422
3. TINPIHEHVGY [CHN1_Y143_Y143H]  0.423
4. KKCTRYIDCDL [ASPA_Y64]  0.429
5. DDIPLYLKGGV [COX7A2_Y44_E40D]  0.435
6. ISKKRYAGLLF [POLD1_Y809]  0.462
7. FIATQYSLRPR [LBR_Y166_YF]  0.464
8. GLVFLYVEKNQ [PRELP_Y156_M157V]  0.479
9. WDLTDYLMKIL [ACTB_Y188_R183W]  0.487
10. IFLENYNAGTF [CFI_Y421_H418L_YF]  0.491
11. MEKEKYVSYIS [JMJD1C_Y596]  0.5
12. SFPSFYTSHVQ [NEFL_Y443_YF]  0.509
13. SSVKPYRVYCD [FGB_Y266]  0.519
14. SLLPDYEDEEE [ZNF830_Y159]  0.556
15. PKGIRYGQGAG [CSRP3_Y73_G72R]  0.585
16. LSVISYDLGMF [GBA3_Y174_M172I]  0.586
17. MASISYDYCRV [BST2_Y6_T4I]  0.589
18. PKEEPYKMQEK [SLC5A3_Y565_Q566K]  0.607
19. HNVPICEGYAL [ACTC1_Y168_Y168C]  0.668
20. PFSSPYENSLI [EPOR_Y489_N487S_YF]  0.674
21. ALRASYTPSPV [ESS2_Y418_A423V]  0.678
22. FARECYSALPQ [SARS2_Y52_G51C_YF]  0.702
23. CDKEYYSVHNK [MET_Y1235_Y1230C]  0.761
24. DDEVFYSPRSL [OTC_Y317]  0.87
25. NEKNIYRVPLM [BMPR2_Y247]  0.877
26. NPIGLYSAEIL [LDB3_Y202_T206I]  1.11
27. LQLLGDRPVYS [CHST6_Y358_Y358D]  1.35
28. QCTSAYLLQPE [NANS_Y188_P189L]  1.4
29. LTTPTYGDLNH [TUBB_Y222]  3.12
30. FNSLLYQVPTS [CALCOCO2_Y358_P357L]  3.65
31. QLQVFYATLDQ [MIPEP_Y579]  3.92
32. SLFNGYVYSGV [NEIL3_Y71]  4.91
33. ACCLLYHGDVV [TUBA4A_Y319_R320H]  5.43

What follows are sequences tested against Grb2 SH2 (UniProt P62993) (assay: SH2 binding enrichment of the phosphorylated peptide, bacterial display (enrichment ratio); higher = better substrate or ligand; peptides without Tyr show the background).
Sequence of Grb2 SH2 (P62993 whole entry, looked up): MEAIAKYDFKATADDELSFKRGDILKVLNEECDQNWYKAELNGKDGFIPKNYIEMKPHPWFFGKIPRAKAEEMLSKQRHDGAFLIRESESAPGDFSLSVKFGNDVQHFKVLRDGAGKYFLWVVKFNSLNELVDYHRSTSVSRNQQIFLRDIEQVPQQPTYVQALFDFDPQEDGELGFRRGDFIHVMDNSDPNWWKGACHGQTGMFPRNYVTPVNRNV

In order of falling SH2 binding enrichment:
1. PFSSPYENSLI [EPOR_Y489_N487S_YF]  14.1
2. WDLTDYLMKIL [ACTB_Y188_R183W]  1.66
3. SYCYRYRCAAQ [SUMF1_Y344_R349Q]  1.42
4. QLQVFYATLDQ [MIPEP_Y579]  1.26
5. LSVISYDLGMF [GBA3_Y174_M172I]  1.12
6. GLVFLYVEKNQ [PRELP_Y156_M157V]  1.12
7. MASISYDYCRV [BST2_Y6_T4I]  1.1
8. SSVKPYRVYCD [FGB_Y266]  1.07
9. SLFNGYVYSGV [NEIL3_Y71]  1.03
10. ACCLLYHGDVV [TUBA4A_Y319_R320H]  1.03
11. LTTPTYGDLNH [TUBB_Y222]  1.02
12. FIATQYSLRPR [LBR_Y166_YF]  1.01
13. PKGIRYGQGAG [CSRP3_Y73_G72R]  0.984
14. SLLPDYEDEEE [ZNF830_Y159]  0.942
15. KKCTRYIDCDL [ASPA_Y64]  0.932
16. SFPSFYTSHVQ [NEFL_Y443_YF]  0.889
17. NEKNIYRVPLM [BMPR2_Y247]  0.864
18. DDIPLYLKGGV [COX7A2_Y44_E40D]  0.862
19. HNVPICEGYAL [ACTC1_Y168_Y168C]  0.833
20. TINPIHEHVGY [CHN1_Y143_Y143H]  0.823
21. FNSLLYQVPTS [CALCOCO2_Y358_P357L]  0.818
22. QCTSAYLLQPE [NANS_Y188_P189L]  0.793
23. DDEVFYSPRSL [OTC_Y317]  0.774
24. LQLLGDRPVYS [CHST6_Y358_Y358D]  0.772
25. PKEEPYKMQEK [SLC5A3_Y565_Q566K]  0.766
26. FARECYSALPQ [SARS2_Y52_G51C_YF]  0.762
27. IFLENYNAGTF [CFI_Y421_H418L_YF]  0.761
28. GDSVQYNRTTD [MLPH_Y454_P451S]  0.718
29. ISKKRYAGLLF [POLD1_Y809]  0.695
30. ALRASYTPSPV [ESS2_Y418_A423V]  0.67
31. CDKEYYSVHNK [MET_Y1235_Y1230C]  0.655
32. NPIGLYSAEIL [LDB3_Y202_T206I]  0.635
33. MEKEKYVSYIS [JMJD1C_Y596]  0.612

The sequences below were run against SHP2-C SH2 in the same assay as above.

In order of rising SH2 binding enrichment:
1. CDKEYYSVHNK [MET_Y1235_Y1230C]  0.553
2. ALRASYTPSPV [ESS2_Y418_A423V]  0.557
3. PKEEPYKMQEK [SLC5A3_Y565_Q566K]  0.624
4. DDEVFYSPRSL [OTC_Y317]  0.647
5. ISKKRYAGLLF [POLD1_Y809]  0.653
6. DDIPLYLKGGV [COX7A2_Y44_E40D]  0.663
7. GDSVQYNRTTD [MLPH_Y454_P451S]  0.704
8. LTTPTYGDLNH [TUBB_Y222]  0.748
9. ACCLLYHGDVV [TUBA4A_Y319_R320H]  0.75
10. NEKNIYRVPLM [BMPR2_Y247]  0.755
11. FARECYSALPQ [SARS2_Y52_G51C_YF]  0.759
12. MASISYDYCRV [BST2_Y6_T4I]  0.77
13. SLLPDYEDEEE [ZNF830_Y159]  0.776
14. HNVPICEGYAL [ACTC1_Y168_Y168C]  0.779
15. IFLENYNAGTF [CFI_Y421_H418L_YF]  0.786
16. LQLLGDRPVYS [CHST6_Y358_Y358D]  0.792
17. MEKEKYVSYIS [JMJD1C_Y596]  0.815
18. KKCTRYIDCDL [ASPA_Y64]  0.83
19. NPIGLYSAEIL [LDB3_Y202_T206I]  0.852
20. PKGIRYGQGAG [CSRP3_Y73_G72R]  0.867
21. TINPIHEHVGY [CHN1_Y143_Y143H]  0.87
22. FNSLLYQVPTS [CALCOCO2_Y358_P357L]  0.91
23. QCTSAYLLQPE [NANS_Y188_P189L]  0.922
24. SSVKPYRVYCD [FGB_Y266]  0.94
25. FIATQYSLRPR [LBR_Y166_YF]  0.973
26. PFSSPYENSLI [EPOR_Y489_N487S_YF]  1.03
27. SFPSFYTSHVQ [NEFL_Y443_YF]  1.1
28. LSVISYDLGMF [GBA3_Y174_M172I]  1.12
29. GLVFLYVEKNQ [PRELP_Y156_M157V]  1.19
30. SYCYRYRCAAQ [SUMF1_Y344_R349Q]  1.43
31. WDLTDYLMKIL [ACTB_Y188_R183W]  1.92
32. SLFNGYVYSGV [NEIL3_Y71]  2.5
33. QLQVFYATLDQ [MIPEP_Y579]  5.62

Each sequence was assayed against c-Src SH2 in the same assay as above.

In order of rising SH2 binding enrichment:
1. LQLLGDRPVYS [CHST6_Y358_Y358D]  0.335
2. NPIGLYSAEIL [LDB3_Y202_T206I]  0.415
3. ALRASYTPSPV [ESS2_Y418_A423V]  0.418
4. MEKEKYVSYIS [JMJD1C_Y596]  0.432
5. ISKKRYAGLLF [POLD1_Y809]  0.449
6. SFPSFYTSHVQ [NEFL_Y443_YF]  0.47
7. DDEVFYSPRSL [OTC_Y317]  0.47
8. QCTSAYLLQPE [NANS_Y188_P189L]  0.473
9. FIATQYSLRPR [LBR_Y166_YF]  0.477
10. DDIPLYLKGGV [COX7A2_Y44_E40D]  0.479
11. GDSVQYNRTTD [MLPH_Y454_P451S]  0.481
12. PKGIRYGQGAG [CSRP3_Y73_G72R]  0.484
13. FARECYSALPQ [SARS2_Y52_G51C_YF]  0.5
14. NEKNIYRVPLM [BMPR2_Y247]  0.508
15. CDKEYYSVHNK [MET_Y1235_Y1230C]  0.51
16. IFLENYNAGTF [CFI_Y421_H418L_YF]  0.527
17. FNSLLYQVPTS [CALCOCO2_Y358_P357L]  0.538
18. PKEEPYKMQEK [SLC5A3_Y565_Q566K]  0.541
19. TINPIHEHVGY [CHN1_Y143_Y143H]  0.58
20. HNVPICEGYAL [ACTC1_Y168_Y168C]  0.587
21. SLLPDYEDEEE [ZNF830_Y159]  0.601
22. LTTPTYGDLNH [TUBB_Y222]  0.662
23. GLVFLYVEKNQ [PRELP_Y156_M157V]  0.663
24. ACCLLYHGDVV [TUBA4A_Y319_R320H]  0.835
25. KKCTRYIDCDL [ASPA_Y64]  0.875
26. LSVISYDLGMF [GBA3_Y174_M172I]  0.888
27. MASISYDYCRV [BST2_Y6_T4I]  1.22
28. SSVKPYRVYCD [FGB_Y266]  1.29
29. WDLTDYLMKIL [ACTB_Y188_R183W]  1.32
30. SYCYRYRCAAQ [SUMF1_Y344_R349Q]  1.5
31. SLFNGYVYSGV [NEIL3_Y71]  1.91
32. QLQVFYATLDQ [MIPEP_Y579]  3.26
33. PFSSPYENSLI [EPOR_Y489_N487S_YF]  6.34
